Data from PMC6454211 (Biochemistry, 2018).

Target: Calmodulin (human full-length CaM, Ca2+-loaded) (human, UniProt P0DP23 1-149)
Assay: cross-linking

binding result: binds
B1: p85α cSH2 domain V663K/V667N/L687F/L691V/L696N (residues 614-724) (domain or fragment)
chain: EDLPHHDEKTWNVGSSNRNKAENLLRGKRDGTFLVRESSKQGCYACSVVKDGENKHCVINKTATGYGFAEPYNFYSSVKELVNHYQHTSLVQHNDSLNVTLAYPVYAQQRR
